Reference: patent US20240150785A1

Tests used:
Assay in all cases: co-immunoprecipitation with bead-bound His-SUMO-BdRFS^Δ1-45 from crude leaf protein extract, LC-MS/MS
Details in all cases: scale: LFQ intensity
[1] = target: Abscisic acid-, Stress- and Ripening-induced 2 (BdASR2, Bd4g24650) (Brachypodium distachyon)
[2] = target: LPR2 (Low Phosphate Root 2; cupredoxin family) (Brachypodium distachyon)
[3] = target: NCED1 (Nine-cis Epoxycarotenoid Cleavage Dioxygenase 1) (Brachypodium distachyon)
[4] = target: PLAT1 (Polycystin, Lipoxygenase, Alpha-toxin, and Triacylglycerol lipase 1) (Brachypodium distachyon)
[5] = target: Phospholipase D α1 (BdPLD α1, Bd2g04480) (Brachypodium distachyon)

average LFQ intensity in eluate [1]: 5.19e+07 | average LFQ intensity in eluate [2]: 2.53e+07 | average LFQ intensity in eluate [3]: 1.48e+07 | average LFQ intensity in eluate [5]: 9.17e+06
B1: His-SUMO-BdRFS^Δ1-45 (protein, not shown: small tags and cut ends; large carriers)
chain: RVRAAGSSHKPGGAVVRSTLVDNKKIASESFDGPRPARSEPASPISEPSSPSKVRFTAYYGGTGSDGGDDGVVEGVKKCAERDEDDFNGESETAVLRRTASMRMRSTIKAPLMAAPDWEEKEMALRKRGDLGWYRHLDMAVLDGSVVRLWTGEVTAAVQASPRERRRAGLELHLSV
average LFQ intensity in eluate [4]: 2.25e+07
